Data reported in US20230107034A1 (published 2023).
Changes are numbered by the printed parent chain. Values belong to the binder of their own block, whether it stands above or below them.

Legend:
monomeric Aβ [1] = target: T1, monomeric Aβ (UniProt P05067 672-713); assay: SPR
[2] = target: T2, synthetic Aβ protofibrils (Aβ1-42-derived protofibrils) (UniProt P05067 672-713); assay: Octet BLI (Protein G sensor); PF 14.7 nM; LB
[3] = target: T2, synthetic Aβ protofibrils …; assay: Octet BLI (Protein G sensor); PF 3.67 nM; LB
[4] = target: T2, synthetic Aβ protofibrils …; assay: Octet BLI (Protein G sensor); PF 0.9167 nM; LB
monomeric Aβ [5] = target: T1, monomeric Aβ; assay: BIAcore SPR
monomeric Aβ [6] = target: T1, monomeric Aβ; assay: SPR; remark: listed apart in the source
[7] = target: T2, synthetic Aβ protofibrils …; assay: Octet BLI (Protein G sensor); PF 14.7 nM
[8] = target: T2, synthetic Aβ protofibrils …; assay: Octet BLI (Protein G sensor); PF 3.67 nM
[9] = target: T2, synthetic Aβ protofibrils …; assay: Octet BLI (Protein G sensor); PF 0.9167 nM
monomeric Aβ [10] = target: T1, monomeric Aβ; assay: BIAcore SPR; remark: listed apart in the source
monomeric Aβ [11] = target: T1, monomeric Aβ; assay: SPR; remark: listed apart in the source
monomeric Aβ [12] = target: T1, monomeric Aβ; assay: BIAcore SPR; remark: listed apart in the source
monomeric Aβ [13] = target: T1, monomeric Aβ; assay: SPR; remark: listed apart in the source

T2 sequence (P05067 672-713): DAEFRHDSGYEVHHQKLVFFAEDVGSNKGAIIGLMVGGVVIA
T1 sequence (P05067 672-713): as above

koff (monomeric Aβ [1]): 0.0956 s⁻¹ | Kd [2]: < 1 pM | Kd [3]: < 1 pM | Kd [4]: < 1 pM
B1: B24 (hybridoma-purified mAb) (antibody, V domains shown)
VH: EVQLLESGGGLVQPGGSLRLSCAASGFTFSSYAMTWVRQAPGEGLEWVSTISGSGIRTYYADSVKGRFTISRDNSKNTMYLQMNSLRAEDTAVYYCAKDGLTGDRRWYFDLWGRGTLVTVSS
VL: EIVMTQSPATLSLSPGERATLSCRASQSVSSSYFSWYQQKPGQAPRLLIYGASTRATGIPARFSGSGSGTDFTLTISSLQPEDFAVYYCQQDSNLPLTFGGGTKVEIK

koff (monomeric Aβ [5]): 6.58e-07 s⁻¹
B2: B19 reprep (=B24) (antibody, V domains shown)
VH: B1 VH
VL: B1 VL

koff (monomeric Aβ [6]): 0.00722 s⁻¹ | Kd [7]: < 1 pM | Kd [8]: < 1 pM | Kd [9]: < 1 pM
B3: B90 (hybridoma-purified mAb) (antibody, V domains shown)
VH: QVQLVESGGGVVQPGRSLRLSCAASGFTFSSYGMHWVRQAPGKGLEWVAIIWYDGSKKYYADSVKGRFTISRDNSKNTLYLQMNSLRVEDTAVYYCARRGRVGATRDYYYYSMDVWGQGTTVTVSS
VL: AIQMTQSPSSLSASVGDRVTITCRASQGIRNDLGWFHQKPGKAPKLLIYAASSLQSGVPSRFSGSGSGTDFTLTISSLQPEDFATYYCLQDYVYPWTFGQGTKVEIK

koff (monomeric Aβ [10]): 0.00356 s⁻¹
B4: B60 (antibody, V domains shown)
VH: B3 VH with Y32H, I50V, K57N, Y59N, V88A, A104V, D107N, S112G
VL: B3 VL with H37Q, G41V, A50P, V93N

koff (monomeric Aβ [11]): 0.00526 s⁻¹ | Kd [7]: < 1 pM | Kd [8]: < 1 pM | Kd [9]: < 1 pM
B5: B54 (hybridoma-purified mAb) (antibody, V domains shown)
VH: B3 VH with S31T, I50L, K65Q, N74S, A104V, D107N, S112G
VL: B3 VL with A25T, G28D, H37Q, L46F, A50P, S56G, T72I, V93N, Y94F, Q100E

koff (monomeric Aβ [11]): 0.0144 s⁻¹ | Kd [7]: < 1 pM | Kd [8]: < 1 pM | Kd [9]: < 1 pM
B6: B51 (hybridoma-purified mAb) (antibody, V domains shown)
VH: B3 VH with Y32H, I50V, K57N, Y59N, V88A, A104V, D107N, S112G
VL: B3 VL with H37Q, G41V, A50P, V93N

koff (monomeric Aβ [12]): 9.41e-05 s⁻¹ | Kd [7]: 21800 pM | Kd [8]: < 1 pM
B7: B28 (hybridoma-purified mAb) (antibody, V domains shown)
VH: QVQLVESGGGVVQPGRSVRLSCAATGFTFSSYGMHWVRQAPGKGLEWVAVIWFDGSNEYYADSVRGRFTISRDNSKNTLYLQMNSLRAEDTAVYYCARRGRVGVTRNYYYYNMDVWGQGTTVTVSS
VL: B3 VL with H37Q, A50P, G68D, V93N, Y94F, W96F, Q100P, E105D

koff (monomeric Aβ [13]): 0.0012 s⁻¹ | Kd [7]: < 1 pM | Kd [8]: < 1 pM | Kd [9]: < 1 pM
B8: B73 (hybridoma-purified mAb) (antibody, V domains shown)
VH: QLQLQMSGPGLVKPSETLSLTCTVSGGSISSSSYYWGWIRQSPGKGLEWIGSIYYSGRTYYNPSLKSRVTISVDTSKNQFSLKLSSVTAADTAMYYCARRSSGRPYYWGQGTLVTVSS
VL: QAVVTQESALTTSPGGTVILTCRSSTGAVTTSNYANWVQEKPDHLFTGLIGETNNRAPGVPVRFSGSLIGDKAALTITGAQTEDDAMYFCALWYSTHWVFGGGTKLTVL

koff (monomeric Aβ [10]): 0.00238 s⁻¹
B9: B75 (hybridoma-purified mAb) (antibody, V domains shown)
VH: QVQLVESGGGVVQPGRSLRLSCAASGFTFSSYGMHWVRQAPGKGLEWVAVIWYDGSYKYYADSVKGRFTISRDNSKNTLYLQMNSLRVEDTAVYYCAREGRTYYDFLTGYFDFWGQGTLVTVSS
VL: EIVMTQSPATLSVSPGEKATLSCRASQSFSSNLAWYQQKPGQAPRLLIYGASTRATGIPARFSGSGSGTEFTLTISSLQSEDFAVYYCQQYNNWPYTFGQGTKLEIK
